Target: T1, MBP-tagged TCV p88C (lacking the p28-overlapping domain from the N-terminus) (Turnip crinkle virus, UniProt P17460 252-775)
T1 sequence: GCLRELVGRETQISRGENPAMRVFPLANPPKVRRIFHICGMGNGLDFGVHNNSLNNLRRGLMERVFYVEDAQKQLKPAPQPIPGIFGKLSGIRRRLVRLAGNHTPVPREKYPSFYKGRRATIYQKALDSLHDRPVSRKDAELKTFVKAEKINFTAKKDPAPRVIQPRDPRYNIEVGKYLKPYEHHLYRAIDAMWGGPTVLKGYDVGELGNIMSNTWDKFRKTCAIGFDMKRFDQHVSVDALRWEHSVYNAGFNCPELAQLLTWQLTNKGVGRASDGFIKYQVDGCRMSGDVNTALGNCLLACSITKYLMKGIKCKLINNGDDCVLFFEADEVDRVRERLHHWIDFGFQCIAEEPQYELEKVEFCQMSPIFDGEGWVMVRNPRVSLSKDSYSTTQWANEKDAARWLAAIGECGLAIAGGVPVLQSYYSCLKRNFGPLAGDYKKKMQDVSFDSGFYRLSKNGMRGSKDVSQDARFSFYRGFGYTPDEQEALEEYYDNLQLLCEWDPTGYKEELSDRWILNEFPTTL
Assay: cell-based or functional assay

B1: eukaryotic translation elongation factor 1A (eEF1A), wild type (natural protein, S. cerevisiae, UniProt P02994 1-458, looked up)
chain: MGKEKSHINVVVIGHVDSGKSTTTGHLIYKCGGIDKRTIEKFEKEAAELGKGSFKYAWVLDKLKAERERGITIDIALWKFETPKYQVTVIDAPGHRDFIKNMITGTSQADCAILIIAGGVGEFEAGISKDGQTREHALLAFTLGVRQLIVAVNKMDSVKWDESRFQEIVKETSNFIKKVGYNPKTVPFVPISGWNGDNMIEATTNAPWYKGWEKETKAGVVKGKTLLEAIDAIEQPSRPTDKPLRLPLQDVYKIGGIGTVPVGRVETGVIKPGMVVTFAPAGVTTEVKSVEMHHEQLEQGVPGDNVGFNVKNVSVKEIRRGNVCGDAKNDPPKGCASFNATVIVLNHPGQISAGYSPVLDCHTAHIACRFDELLEKNDRRSGKKLEDHPKFLKSGDAALVKFVPSKPMCVEAFSEYPPLGRFAVRDMRQTVAVGVIKSVDKTEKAAKVTKAAQKAAKK
  in vitro (−)RNA synthesis by the TCV RdRp on a TBSV (+)RNA template after pre-incubation of purified wt eEF1A with the TCV RdRp: ~5 fold
